# Patent US20250152742A1, “COMPOSITIONS AND METHODS FOR NEUROLOGICAL DISEASES” (Trames Bio, Inc., priority 2022, published 2025)
# Test system: engineered chimeric receptor SEQ ID NO: 33 and its mutants (human α7-nAChR ligand binding domain / human GlyRα1 ion pore domain) in Lenti-X 293T cells
# Assay: YFP fluorescence quenching anion reporter plate reader assay (percent quench, EC50)
# Assay type: cell-based
# Conditions: for YFP fluorescence quenching using CNL001 (percent quench): receptor named in row; for YFP fluorescence quenching using Facinicline, 30 nM fac: ligand Facinicline 30 nM; for YFP fluorescence quenching using Facinicline, 300 nM fac: ligand Facinicline 300 nM; for YFP fluorescence quenching using Facinicline, 30 uM fac: ligand Facinicline 30 uM; for YFP fluorescence quenching using TC-6987, 1 uM tc6987: ligand TC-6987 1 uM; for YFP fluorescence quenching using TC-6987, 10 uM tc6987: ligand TC-6987 10 uM; for YFP fluorescence quenching using TC-6987, 500 uM tc6987: ligand TC-6987 500 uM; for YFP fluorescence quenching using Varenicline, 3 nM var: ligand Varenicline 3 nM; for YFP fluorescence quenching using Varenicline, 30 nM var: ligand Varenicline 30 nM; for YFP fluorescence quenching using Varenicline, 300 nM var: ligand Varenicline 300 nM; for YFP fluorescence quenching using Varenicline, 500 nM var: ligand Varenicline 500 nM; for YFP fluorescence quenching using Varenicline, 1 uM var: ligand Varenicline 1 uM
# Outline: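 Lenti-X 293T cells co-expressing an anion-quenchable YFP were transiently transfected with receptor DNA, then ligand was added in NaI-substituted buffer (pH 7.2) after 30 min at 37 °C. Fluorescence was read about 2 min; percent quench = mean of last 10 s over 15 s pre-ligand baseline.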
# [1] = 1 nM CNL001, first column so headed
# [2] = 1 nM CNL001, second column so headed
# [3] = 3 nM brd (TC-5619/Bradanicline)
# [4] = 10 nM CNL001, first column so headed
# [5] = 10 nM CNL001, second column so headed
# [6] = 30 nM brd (TC-5619/Bradanicline)
# [7] = 50 nM CNL001, first column so headed
# [8] = 50 nM CNL001, second column so headed
# [9] = 100 nM CNL001, first column so headed
# [10] = 100 nM CNL001, second column so headed
# [11] = 300 nM brd (TC-5619/Bradanicline)
# [12] = 1 uM CNL001, first column so headed
# [13] = 1 uM CNL001, second column so headed
molecule,measurement,setting,value
"CODA342: engineered receptor: L131R in SEQ ID NO: 33 (protein, synthetic sequence of chimeric LGIC) MRCSPGGVWLALAASLLHVSLQGEFQRKLYKELVKNYNPLERPVANDSQPLTVYFSLSLLQIMDVDEKNQVLTTNIWLQMSWTDHYLQWNVSEYPGVKTVRFPDGQIWKPDILLYNSADERFDATFHTNVRVNSSGHCQYLPPGIFKSSCPMDLKNFPMDVQTCKLKFGSWSYGGWSLDLQMQEADISGYIPNGEWDLVGIPGKRSERFYECCKEPYPDVTFTVTMRRRMGYYLIQMYIPSLLIVILSWISFWINMDAAPARVGLGITTVLTMTTQSSGSRASLPKVSYVKAIDIWMAVCLLFVFSALLEYAAVNFVSRQHKELLRFRRKRRHHKSPMLNLFQEDEAGEGRFNFSAYGMGPACLQAKDGISVKGANNSNTTNPPPAPSKSPEEMRKLFIQRAKKIDKISRIGFPMAFLIFNMFYWIIYKIVRREDVHNQ",YFP fluorescence quenching using CNL001 (percent quench),[1],23.532%
same,YFP fluorescence quenching using CNL001 (percent quench),[2],26.054%
same,YFP fluorescence quenching using TC-5619/Bradanicline (percent quench),1 nM brd (TC-5619/Bradanicline),−7.83%
same,YFP fluorescence quenching using TC-5619/Bradanicline (percent quench),[3],−12.89%
same,YFP fluorescence quenching using CNL001 (percent quench),[4],43.69%
same,YFP fluorescence quenching using CNL001 (percent quench),[5],54.016%
same,YFP fluorescence quenching using TC-5619/Bradanicline (percent quench),10 nM brd (TC-5619/Bradanicline),−10.47%
same,YFP fluorescence quenching using TC-6683 (percent quench),30 nM TC-6683,−16.26%
same,YFP fluorescence quenching using TC-5619/Bradanicline (percent quench),[6],59.48%
same,YFP fluorescence quenching using CNL001 (percent quench),[7],59.955%
same,YFP fluorescence quenching using CNL001 (percent quench),[8],56.091%
same,YFP fluorescence quenching using ABT-126 (percent quench),50 nM abt (ABT-126),−18.14%
same,YFP fluorescence quenching using CNL001 (percent quench),[9],64.536%
same,YFP fluorescence quenching using CNL001 (percent quench),[10],58.987%
same,YFP fluorescence quenching (percent quench),100 nM CNL002,−17.2%
same,YFP fluorescence quenching using ABT-126 (percent quench),100 nM abt (ABT-126),−18.14%
same,YFP fluorescence quenching using AZD-0328 (percent quench),100 nM azd0328,1.79%
same,YFP fluorescence quenching using TC-5619/Bradanicline (percent quench),100 nM brd (TC-5619/Bradanicline),70.19%
same,YFP fluorescence quenching using TC-6683 (percent quench),300 nM TC-6683,−22.45%
same,YFP fluorescence quenching using ABT-126 (percent quench),300 nM abt (ABT-126),−0.81%
same,YFP fluorescence quenching using AZD-0328 (percent quench),300 nM azd0328,66.58%
same,YFP fluorescence quenching using TC-5619/Bradanicline (percent quench),[11],75.11%
same,YFP fluorescence quenching using ABT-126 (percent quench),500 nM abt (ABT-126),23.29%
same,YFP fluorescence quenching using CNL001 (percent quench),[12],65.987%
same,YFP fluorescence quenching using CNL001 (percent quench),[13],64.312%
same,YFP fluorescence quenching (percent quench),1 uM CNL002,8.12%
same,YFP fluorescence quenching using ABT-126 (percent quench),1 uM abt (ABT-126),45.76%
same,YFP fluorescence quenching using TC-5619/Bradanicline (percent quench),1 uM brd (TC-5619/Bradanicline),77.42%
same,YFP fluorescence quenching using TC-6683 (percent quench),3 uM TC-6683,−13.48%
same,YFP fluorescence quenching using ABT-126 (percent quench),3 uM abt (ABT-126),53.03%
same,YFP fluorescence quenching using ABT-126 (percent quench),10 uM abt (ABT-126),64.08%
same,YFP fluorescence quenching (percent quench),10 uM ach (acetylcholine),−2.57%
same,YFP fluorescence quenching (percent quench),30 uM CNL002,57.24%
same,YFP fluorescence quenching using TC-6683 (percent quench),30 uM TC-6683,−12.68%
same,YFP fluorescence quenching using ABT-126 (percent quench),30 uM abt (ABT-126),71.98%
same,YFP fluorescence quenching using AZD-0328 (percent quench),30 uM azd0328,80.55%
same,YFP fluorescence quenching using ABT-126 (percent quench),50 uM abt (ABT-126),73.98%
same,YFP fluorescence quenching using TC-6683 (percent quench),100 uM TC-6683,−10.33%
same,YFP fluorescence quenching using ABT-126 (percent quench),100 uM abt (ABT-126),73.51%
same,YFP fluorescence quenching (percent quench),100 uM ach (acetylcholine),−3.18%
same,YFP fluorescence quenching (percent quench),1 mM ach (acetylcholine),78.98%
same,YFP fluorescence quenching (percent quench),3 mM ach (acetylcholine),75.75%
same,"YFP fluorescence quenching using Facinicline, 30 nM fac",,−6.2
same,"YFP fluorescence quenching using Facinicline, 300 nM fac",,76.75
same,"YFP fluorescence quenching using Facinicline, 10 uM fac",ligand Facinicline 10 uM,82.16
same,"YFP fluorescence quenching using Facinicline, 30 uM fac",,81.71
same,"YFP fluorescence quenching using TC-6987, 1 uM tc6987",,2.51
same,"YFP fluorescence quenching using TC-6987, 10 uM tc6987",,46.22
same,"YFP fluorescence quenching using TC-6987, 500 uM tc6987",,68.33
same,"YFP fluorescence quenching using Varenicline, 3 nM var",first column,0.271
same,"YFP fluorescence quenching using Varenicline, 3 nM var",second column,−3.613
same,"YFP fluorescence quenching using Varenicline, 30 nM var",first column,−4.935
same,"YFP fluorescence quenching using Varenicline, 30 nM var",second column,−4.363
same,"YFP fluorescence quenching using Varenicline, 300 nM var",first column,0.282
same,"YFP fluorescence quenching using Varenicline, 300 nM var",second column,2.32
same,"YFP fluorescence quenching using Varenicline, 500 nM var",first column,23.777
same,"YFP fluorescence quenching using Varenicline, 500 nM var",second column,18.376
same,"YFP fluorescence quenching using Varenicline, 1 uM var",first column,66.17
same,"YFP fluorescence quenching using Varenicline, 1 uM var",second column,66.088
"CODA337: engineered receptor: L131N in SEQ ID NO: 33 (protein, synthetic sequence of chimeric LGIC) MRCSPGGVWLALAASLLHVSLQGEFQRKLYKELVKNYNPLERPVANDSQPLTVYFSLSLLQIMDVDEKNQVLTTNIWLQMSWTDHYLQWNVSEYPGVKTVRFPDGQIWKPDILLYNSADERFDATFHTNVNVNSSGHCQYLPPGIFKSSCPMDLKNFPMDVQTCKLKFGSWSYGGWSLDLQMQEADISGYIPNGEWDLVGIPGKRSERFYECCKEPYPDVTFTVTMRRRMGYYLIQMYIPSLLIVILSWISFWINMDAAPARVGLGITTVLTMTTQSSGSRASLPKVSYVKAIDIWMAVCLLFVFSALLEYAAVNFVSRQHKELLRFRRKRRHHKSPMLNLFQEDEAGEGRFNFSAYGMGPACLQAKDGISVKGANNSNTTNPPPAPSKSPEEMRKLFIQRAKKIDKISRIGFPMAFLIFNMFYWIIYKIVRREDVHNQ",YFP fluorescence quenching using CNL001 (percent quench),[1],76.917%
same,YFP fluorescence quenching using CNL001 (percent quench),[2],79.554%
same,YFP fluorescence quenching using TC-5619/Bradanicline (percent quench),[3],71.02%
same,YFP fluorescence quenching using CNL001 (percent quench),[4],79.479%
same,YFP fluorescence quenching using CNL001 (percent quench),[5],79.506%
same,YFP fluorescence quenching using TC-6683 (percent quench),30 nM TC-6683,−11.51%
same,YFP fluorescence quenching using TC-5619/Bradanicline (percent quench),[6],78.43%
same,YFP fluorescence quenching using CNL001 (percent quench),[7],81.465%
same,YFP fluorescence quenching using CNL001 (percent quench),[8],81.297%
same,YFP fluorescence quenching using ABT-126 (percent quench),50 nM abt (ABT-126),−11.64%
same,YFP fluorescence quenching using CNL001 (percent quench),[9],82.619%
same,YFP fluorescence quenching using CNL001 (percent quench),[10],81.722%
same,YFP fluorescence quenching (percent quench),100 nM CNL002,76.37%
same,YFP fluorescence quenching using ABT-126 (percent quench),100 nM abt (ABT-126),34.79%
same,YFP fluorescence quenching using AZD-0328 (percent quench),100 nM azd0328,82.1%
same,YFP fluorescence quenching using TC-6683 (percent quench),300 nM TC-6683,−13.17%
same,YFP fluorescence quenching using ABT-126 (percent quench),300 nM abt (ABT-126),60.08%
same,YFP fluorescence quenching using AZD-0328 (percent quench),300 nM azd0328,82.52%
same,YFP fluorescence quenching using TC-5619/Bradanicline (percent quench),[11],77.12%
same,YFP fluorescence quenching using CNL001 (percent quench),[12],81.96%
same,YFP fluorescence quenching using CNL001 (percent quench),[13],81.773%
same,YFP fluorescence quenching (percent quench),1 uM CNL002,80.18%
same,YFP fluorescence quenching using ABT-126 (percent quench),1 uM abt (ABT-126),65.99%
same,YFP fluorescence quenching using TC-6683 (percent quench),3 uM TC-6683,−5.46%
same,YFP fluorescence quenching (percent quench),10 uM ach (acetylcholine),28.32%
same,YFP fluorescence quenching (percent quench),30 uM CNL002,80.93%
same,YFP fluorescence quenching using TC-6683 (percent quench),30 uM TC-6683,8.53%
same,YFP fluorescence quenching using AZD-0328 (percent quench),30 uM azd0328,82.32%
same,YFP fluorescence quenching using TC-6683 (percent quench),100 uM TC-6683,14.41%
same,YFP fluorescence quenching (percent quench),100 uM ach (acetylcholine),81.8%
same,YFP fluorescence quenching (percent quench),1 mM ach (acetylcholine),71.22%
same,YFP fluorescence quenching (percent quench),3 mM ach (acetylcholine),73.7%
same,"YFP fluorescence quenching using Facinicline, 30 nM fac",,82.25
same,"YFP fluorescence quenching using Facinicline, 300 nM fac",,83.59
same,"YFP fluorescence quenching using Facinicline, 30 uM fac",,82.82
same,"YFP fluorescence quenching using TC-6987, 1 uM tc6987",,79.06
same,"YFP fluorescence quenching using TC-6987, 10 uM tc6987",,82.36
same,"YFP fluorescence quenching using TC-6987, 500 uM tc6987",,80.19
same,"YFP fluorescence quenching using Varenicline, 3 nM var",first column,3.093
same,"YFP fluorescence quenching using Varenicline, 3 nM var",second column,12.327
same,"YFP fluorescence quenching using Varenicline, 30 nM var",first column,77.097
same,"YFP fluorescence quenching using Varenicline, 30 nM var",second column,77.653
same,"YFP fluorescence quenching using Varenicline, 300 nM var",first column,79.446
same,"YFP fluorescence quenching using Varenicline, 300 nM var",second column,79.998
same,"YFP fluorescence quenching using Varenicline, 500 nM var",first column,80.691
same,"YFP fluorescence quenching using Varenicline, 500 nM var",second column,80.309
same,"YFP fluorescence quenching using Varenicline, 1 uM var",first column,80.258
same,"YFP fluorescence quenching using Varenicline, 1 uM var",second column,79.509
